Experimental data reported in the DeepSol protein solubility set.

Assay: soluble on expression in E. coli; label from the status in PepcDB or PDB records

| Sequence | soluble on expression in E. coli |
| --- | --- |
| MSLDKIKAVIFDMDGVLIDAKEWHYEALNKALRLFGFEISRYDHLVTFDGLPTAKKLEMMTVERGLPKSLHQLINDMKQIYTMEYVYMKCKPLFVHQYALSRLKSEGFRLALASNSVRVTIDMMMEKADLNQYLDFSLSNQDVKKSKPDPEIYITAINRLGLSPEECLVVEDNQNGVKAALASGANLLKVETINDVTYSNIINRINEIENNIEGHHHHHH | soluble |
| MAHHHHHHMSSQAQQRAPAYAPRDTHAERLAAADREAAARRDSSTNWTWYPEYHLAPYMGWMNDPTGLVHFRDHYHVFYQYHPYSAEWGPMHWGHMTSEDLVHWQHEKVALAPGDACDRNGCFSGTAVVHEDRMYVFYTGHFALDAATPSNPDAIFEQQCVAVSSDGVNFEKLGAVVRPPPGYVHFRDPKVWQQDGRWWMVCGARDVTKDLGQLLLFTTEDLLKWDDTNWQVLGMTEDKNVFMWECPDYFTIGSREDMKLLLFCPQGKKASEYNYRNRFQNGYTVGQWMPGGPWTVQREFRELDRGHDFYAAQTFLAADGQRRMLMAWCNMWESPMPTKQYGWSGCLTLPRELSYNEATGQLCMLPARELVGLRTPEMMIVPSLLVENNSDAQILENCTAYELDIAFNMETSTAEKYGLWLGSGAELYVDAQSKRLVLNRHYPQHMLSGYRSCELPIGLLLQLHVFIDRSSIEVFVNNGEATFSSRVFPDEGDRALRVFSVNGTADMVGGTMWKLKATVRH | not soluble |
| MADIAILVAEEYERRMKHTTVGSRSSPVEFDWWKIIPAKMTIAFDKMKIESLKKNFEAKSEFALAISHGFFSA | not soluble |
| MAHHHHHHMADVSADSDAQVELERLNDVIDKYTCQVEHIDNLLQELEEENNSDSVSRQIAEYQSALESHPENIPAEDALEVITRLENTLKIVQRRNHLLEKENGTQNRLLEERSNVLLNATKTFDHIVDVTGWHDKFLFDAEDLRSKVADIREMSNIEAVVQKELRVAQGIIKKKEAALRQLEELVEQGKEQEAVLNNVYNDIRVKERDCSEVEMQLVRLRKSVAKTDEALAVFDLHNQNASLAYMESDRDYLRDSVAEMKSTTRRQDNVIKAQLTRQQQLQTRLDVIMKSLREMKLDKKYERNIPKSALVPSASREEPEDVSKILPESECIPVPTYRLLHKNNEMLRVIVMRKNMLVLEKNAVIEALEAGLAKYGSALITTYKEQQDLRQNKDMELIELMDDLQQQHSNYLEKLEELRLQNAALKKKMYRSTRQHAPLKGTRPMR | not soluble |
| MNNQLTEITVVRRQSAPRLEFEAAAIYEYPEHLRPFLSEAPALPGVYIFHSESDTLPLYIGKSVNIRSRVLSHLRTPDEATMLRQARRISWICTAGEMGALLLEARLIKEQQPLFNKRLRRNRQLCSLQLSEQKIEVVSARSVDFSHEPNLFGLFANRRAALQSLQNLADEQKLCYGLLGLEPVSRGRACFRFALKRCAGACCGQETPQAHFLRLQASLERLRVVCWPWKGAIALKESRPQMTQFHIINNWLWLGAVPSLDEAATLVRTPAGFDQDGYKILCKPLMSGQYEIIELHTDCRQS | not soluble |
| MSLKIGFFIMNIGSAGGTERVSINVANALAKQGYDVSFISIGGNKPFFQVDEKINIYAMNKLPYSLKKDYFSITKKLRELVKELQLDTLIVVDGAIMLFSALALVNLNIKHILWEHYSFNFTGNRLVRTLGKYLAVTTCDKIVTLTEAEKTLWQEKFKTNNIISIANPNTLLPKNKLAKLENKTILSVGHLFSYKGFDYLLKVWQVLAKKYPDWNLKIVGSGEEEENLKNLAKALDIEDSVNFIPRTNDVSFYYESSSIYCLPSQTEGLPLVVIEAMAFGLPIVAFNCSPGVKQLVEHKENGFLCEQNNIEEMVKGLDLLINNPELYLQMSDKSRLMSEDYGIEKIIEEWKGILEGHHHHHH | soluble |
| MVNSTTLAHLNTNIDHLTTVLSSYAGRDKAIRSLAFYLQLKSTTSPDNAKEILGLAKQLSAARLVSRQFNHPGMLKSCRQIMQAFQTGRIGDPLEFLTGAAVTGIYTVYGFVELLAWLSDAKILAFNSARLYKWCLYLWLSELINGIVRQMRVIYRKGIEKSQEDILTLVGLSSDFISGVNSLPHKILWAGKLSMRQSASFSLLASIIGFYKLW | not soluble |
| MKTALESLRNASALYNEKLVKLMKSFGMTIAEHRLLLLIESGLDTQEKISLATKLDTSTLSRQLKSAVRKELLDKLATGRDKRQLIYSVTEKGQSDLKGIAAELARIDANVFSDWNQNDRALLDQLLDKLEKSI | not soluble |
| MGSDKIHHHHHHMKHLLAGILVWVIWGLCSCQSDGKVIIPSPIYVDNHYHGPADPEITWNPKTEEWMIFYTSRRPFKDQASYVGTPVGVAVSKDFVHWKFAGYCSFDGVGGQPDSEKTYWAPGVIVEGDSAHMFVTLKDDSTPVWGGPSNIVHFSAPLEDMISGWRRVNTVVDTPISIDATVVKNGDRWDMWYRDRPTEDTGGLYYAQSNDLYHWTLKGLAKGDINNVEVTKHTYQEGAYAFQWKGYFWIIADPHKGLAVYRSKDAENWEYQGIVMYEPGTRFFDNTRARHPSVIIRNDRAFIVYHVQPFLGYNPNTHEAGDDVYQKLSFLQMAELEFKDGKLICDRNKVLYK | not soluble |
| GSSGSSGQFSDMRISINQTPGKSLDFGFTIKWDIPGIFVASVEAGSPAEFSQLQVDDEIIAINNTKFSYNDSKEWEEAMAKAQETGHLVMDVRRYGK | soluble |
| MLDLIQTRRDLHQIPEIGLEEFKTQAYLLDVIEKLTTGKDFVQIRTWRTGILVYLQGSQPERTIGWRTDIDGLPIVEQTGLPFASQHQGRMHACVHDFHMTIALGCLERALEEQPKNNLLFLFQPAEENEAGGMLMYEDGAFGDWLPDQFYGLHVRPDLKVGQIATNTHTLFAGTCEVKIRFKGKGGHAAFPHEANDALVAASYFVTQVQSVVSRNVNPIEGAVVTFGVFQAGTTNNVITDTAFLHGTIRALTQDMSLLVQKRVKTVAEGVAAAFDMEVEVELKQGGYLPVENNPALARELMDFFDEKDGIELIDIEPAMTGEDFGYLLSKVDGVMFWLGIDSPYALHHPQMSPKEEVLAIGVAAVSSFLKKKAAE | soluble |
| MCMGIFKRVSNMVKAKVNNTLDEMENPIELLDQKIRDMEESLNKAKISSAQILGNAHEIEKKLQKARLESEDYDSKVKLAVKNGNDDLAKRALERKLDADKRESLQKSYEDASQKSKVIKDKLRTLEEEIEKTRAYRDEAAARFNNAEATKKVNEVLSNVDTGSNSINLDDIERKIERKEAMAEGLGDLRNEDSLEKEFEKLNETNLDDELAKYKNNIKLEHHHHHH | soluble |
| GSHMNPLTQAVPKCQRWEKLQNSRCVCKMPYECGPSLDVCAQDERSKRILPLTVCKMHVLHCQGRNYTLTGRDSCTLPASAEKACGACPLWGKCDAESSKCVCREASECEEEGFSICVEVNGKEQTMSECEAGALRCRGQSISVTSIRPCAAETQ | soluble |
| MNKIHLCTLAVLTSLSFSSLAKDCDANLLPSWKDSDSKTAIVNFVEQSTDSSKATFIPVSDRIAVFDNDGTLWSEKPIYFQIAFALDQIKALAKTHPEWKTQEPFKSVIENDLEKVFAGGKESLLQIMKVTHSGMTVEEYQQSVEQWLAAAKDKRFGKAYNDLTFKPMREMLTYLQENNFKTYIVSGGGVDFMRVWAPEAYNIPEEQIIGSALKYEYSFNDGQPKVMKLGELLTLDDKEVKVENIQYIIGKKPVLAVGNSDGDQAMMQWATSQPNSMAMIVHHTDEAREWKYDRQSDVGRLDKALDEANERDNWQLIDMKNDWCAVY | not soluble |
| MKFVVASYGTRGDIEPCAAVGLELQRRGHDVCLAVPPNLIGFVETAGLSAVAYGSRDSQEQLDEQFLHNAWKLQNPIKLLREAMAPVTEGWAELSAMLTPVAAGADLLLTGQIYQEVVANVAEHHGIPLAALHFYPVRANGEIAFPARLPAPLVRSTITAIDWLYWRMTKGVEDAQRRELGLPKASTPAPRRMAVRGSLEIQAYDALCFPGLAAEWGGRRPFVGALTMESATDADDEVASWIAADTPPIYFGFGSMPIGSLADRVAMISAACAELGERALICSGPSDATGIPQFDHVKVVRVVSHAAVFPTCRAVVHHGGAGTTAAGLRAGIPTLILWVTSDQPIWAAQIKQLKVGRGRRFSSATKESLIADLRTILAPDYVTRAREIASRMTKPAASVTATADLLEDAARRAR | not soluble |
